In patent publication US20190010231A1 (Pieris, published 2019):

Experiments:
[1] = target: T1, human LAG-3-His (LAG-3 with C-terminal polyhistidine tag, ACROBiosystems) (human, UniProt P18627 23-450); assay: ELISA: LAG-3-His coated, detection anti-Tlc antibody-HRP (an antibody without lipocalin part would not be seen by this detection; see Figure 3C for anti-Fc detection)
T1 construct: Bought protein; also called recombinant LAG-3-His
T1 sequence (looked up): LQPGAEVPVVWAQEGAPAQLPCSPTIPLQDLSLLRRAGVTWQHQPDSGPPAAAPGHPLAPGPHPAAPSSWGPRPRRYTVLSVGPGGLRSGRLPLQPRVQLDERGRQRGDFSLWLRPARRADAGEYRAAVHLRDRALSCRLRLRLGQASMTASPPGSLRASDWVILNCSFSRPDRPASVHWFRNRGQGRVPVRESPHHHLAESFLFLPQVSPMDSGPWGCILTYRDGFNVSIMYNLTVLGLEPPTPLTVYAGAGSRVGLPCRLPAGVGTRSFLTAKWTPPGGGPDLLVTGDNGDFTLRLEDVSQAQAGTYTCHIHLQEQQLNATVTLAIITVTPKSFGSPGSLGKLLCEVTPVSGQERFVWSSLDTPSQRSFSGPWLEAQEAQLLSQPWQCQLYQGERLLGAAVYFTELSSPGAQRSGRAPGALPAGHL

[2] = target: T2, human LAG-3-Fc fusion (human LAG-3 extracellular domain fused to human IgG1 Fc fragment, R&D Systems) (human, UniProt P18627 23-450, biotinylated in Example 5 (sites not given)); assay: dual-binding ELISA: PD-1-His coated, antibody titrated from 250 nM, then biotinylated huLAG-3-Fc 2 ug/mL, detection Extravidin-HRP, RFU
T2 construct: extracellular domain; also called huLAG-3-Fc; biotinylated human LAG-3-Fc; not shown: human IgG1 Fc fragment
T2 sequence (looked up): T1 sequence (looked up)
Experimental: The plates were washed five times after each incubation step with 100 μL PBS-0.05% T. The plates were blocked with 2% BSA (w/v) in PBS-0.1% T for 1 h at room temperature and subsequently washed again. Different concentrations of the fusion polypeptides were added to the wells and incubated for 1 h at room temperature, followed by a wash step. […] After an additional wash step, fluorogenic HRP substrate (QuantaBlu, Thermo) was added to each well and the fluorescence intensity was detected using a fluorescence microplate reader.

B1: PD-1 specific benchmark antibody (SEQ ID NOs: 3 and 4) (antibody, human IgG4 S228P, kappa, V domains shown)
VH: QVQLVESGGGVVQPGRSLRLDCKASGITFSNSGMHWVRQAPGKGLEWVAVIWYDGSKRYYADSVKGRFTISRDNSKNTLFLQMNSLRAEDTAVYYCATNDDYWGQGTLVTVSS
VL: EIVLTQSPATLSLSPGERATLSCRASQSVSSYLAWYQQKPGQAPRLLIYDASNRATGIPARFSGSGSGTDFTLTISSLEPEDFAVYYCQQSSNWPRTFGQGTKVEIKR
notes: Engineered IgG4 backbone with the S228P mutation; also called PD-1-specific antibody
- binding result [1]: no binding (tested: 250 nM)
- binding result [2]: no binding (tested: 250 nM)
